Kd data for 2 molecules are collected here from patent WO2017102789A1 (dated 2017).

This assay concerns the target T1, human HER3 ECD (human, UniProt P21860 20-643).
T1 construct: also called hHER3-ECD; hu-HER3-ECD
In words: SPR (Biacore T100), antibody captured by anti-Fc gamma antibody, human HER3 ECD 0-1000 nM as analyte, 25°C, Langmuir 1:1 model. On the technique in general: SPR reads the build-up and loss of mass on a sensor chip optically.

B1: Mab 205.10.1 (antibody, V domains shown)
VH: QVQLVQSGAEVKKPGASVKVSCKASGYTFRSSYISWVRQAPGQGLEWMGWIYAGTGSPSYNQKLQGRVTMTTDTSTSTAYMELRSLRSDDTAVYYCARHRDYYSNSLTYWGQGTLVTVSS
VL: DIVMTQSPDSLAVSLGERATINCKSSQSLLNSGNQKNYLTWYQQKPGQPPKLLIYWASTRESGVPDRFSGSGSGTDFTLTISSLQAEDVAVYYCQSDYSYPYTFGQGTKLEIK
notes: Humanized anti-HER3 antibody; Only variable domains are tied to it
As usually defined, the Kd is the free concentration of one partner at which half of the binding sites on the other are occupied at equilibrium, for simple one-to-one binding. Low readings indicate tighter binding, high ones weaker binding. In the case of B1, the dissociation constant Kd was found to be 2 nM.

B2: Mab 205.10.3 (antibody, V domains shown)
VH: QVQLVQSGAEVKKPGASVKVSCKASGYTFRSSYISWVRQAPGQGLEWMGWIYAGTGSPSYNQKLQGRVTMTTDTSTSTAYMELRSLRSDDTAVYYCARHRDYYSNSLTYWGQGTLVTVSS
VL: DIVMTQSPDSLAVSLGERATINCKSSQSLLNSGNQKNYLTWYQQKPGQPPKLLIYWASTRESGVPDRFSGSGSGTDFTLTISSLQAEDVSIYYCQSDYSYPYTFGQGTKLEIK
notes: as for B1
Regarding B2, the Kd was determined as 2 nM.
